Source: paper PMC2978346

Target: His6-PfSSB (Plasmodium falciparum 3D7, UniProt Q8I415 77-284)
Experiment: EMSA

B1: 70-mer ssDNA oligonucleotide (ssDNA)
DNA: CTGCCACACACCACCAAAGCTAACTGACAGGAGAATCCAGATGGATCATTTAAAGCATTTGCAACAATTG
- binding result: binds
